This is an account of results in patent publication US20230312745A1.

Broadly, the Kd is the free concentration of one partner at which half of the binding sites on the other are occupied at equilibrium, for simple one-to-one binding. A low value points to a tighter complex.

Experiment [1] deals with Ly6C on mouse blood mononuclear cells (mouse) (UniProt P0CW02). The experiment is described as follows: flow cytometry contour plot of live mononuclear-gated blood cells 1 h after injection into DSS treated mice; upper left quadrant 9.7; Mock panel 14.6 and 0.30. (In general: Flow cytometry measures light scatter and fluorescence of single cells or particles in a stream.)
Chain of UniProt P0CW02 (P0CW02 27-109): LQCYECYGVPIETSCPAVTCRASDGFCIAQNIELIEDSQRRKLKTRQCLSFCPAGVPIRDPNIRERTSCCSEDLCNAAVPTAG
In experiment [2] the target is LFA-1 on the mouse T cell lymphoma cell line TK1 (mouse) (UniProt P24063). The experiment is described as follows: flow cytometry, control: secondary scFv on TK1 cells without RIg; left gate 97.9; unstain 1.87; target taken as the LFA-1 carried by TK1 cells.
Experiment [3] deals with Rat IgG2a (RIg), clone FIB504 (BioXcell). The experiment is described as follows: ELISA, plate coated with RIg, serial dilutions of ASSET, anti-His detection.
Experiment [4] has the same target. Put plainly: ELISA on coated RIg, ASSET LNPs after dialysis, pre-incubated with 0.2% Triton X-100. In general terms: In an ELISA, binding on a coated surface is turned into a signal by an enzyme label.
In experiment [5] the target is anti-CD34 antibody (clone mec14.7) RIg, self-assembled on ASSET LNPs (TsiLNPs). Put plainly: RIg taken up by ASSET LNPs, acrylamide gel against free RIg dilutions / western blot after 1 MDa dialysis. (In general: In western blotting, separated proteins are transferred to a membrane and probed.)

As to “isotype control RIg (BioXcell), self-assembled on ASSET LNPs (TsiLNPs) (antibody)”, the number in the upper right quadrant (Ly6C high, siCy5 high) in experiment [1] came out at 0.53.

B1: Secondary scFv (scFv of clone RG7/1.30, without lipidation motif) (scFv)
scFv: HHHHHHEVQLLQSGPELVKPGASVKIPCKASGYTFTDYNMDWVKQSHEKSLEWIGYINPYSGDTIYNHKFKDKATLTVYKSSNIAYMELRSLTSEDTAVYYCARGGYDYGDHWGQGTTLTVSSGSAGGGGSGGGGSGGGGSDIKMTQSPSSMYASLGERVTITCKASQDINSYLSWFQQKPGKSPKTLIYRANRLVDGVPSRFSGSGSGQDYSLTISSLEYEDMGIYYCLQDDEFPRTFGGGTKLEIK
Consider B1, for which the number in the right (positive) gate of the histogram in experiment [2] was 2.06.

B2: ASSET (Anchored Secondary scFv Enabling Targeting) (scFv, part only; not given: mCherry fusion partner, part only)
scFv, part: CDQSSSEVQLLQSGPELVKPGASVKIPCKASGYTFTDYNMDWVKQSHEKSLEWIGYINPYSGDTIYNHKFKDKATLTVYKSSNIAYMELRSLTSEDTAVYYCARGGYDYGDHWGQGTTLTVSSGSAGGGGSGGGGSGGGGSDIKMTQSPSSMYASLGERVTITCKASQDINSYLSWFQQKPGKSPKTLIYRANRLVDGVPSRFSGSGSGQDYSLTISSLEYEDMGIYYCLQDDEFPRTFGGGTKLEIKHHHHHH
modifications: N-terminal cysteine of the CDQSSS NlpA motif is lipidated (bacterial lipidation)
As to B2, the Kd in experiment [3] was 10 nM. In addition, the functionality maintained after incorporation into LNPs in experiment [4] turned out to be 95.8%. The IgG incorporation in experiment [5] turned out to be 98.3%.
